Biological target: T1, recombinant human FcεRIa extracellular region-mouse IgG2a Fc-6×His fusion protein (human; mouse, UniProt P12319 26-205)
T1 construct: extracellular domain; Self-produced; also called FcεRIa-mG2Ahis; DB3967; not shown: mouse IgG2a Fc
Assay: BLI (GatorBio), FcεRIa-mG2Ahis loaded on Anti-HIS probe, binding protein at 200, 50, 12.5 nM
Text: In order to verify the binding ability of the binding proteins to FcεRIa, the Bio-layer Interferometry (BLI, GatorBio) was used to detect the affinity of the binding proteins to FcεRIa. The detailed affinity assay method can be found in the usage or application instructions of the GatorBio instrument, which was briefly described as follows: […]

T1 sequence (P12319 26-205): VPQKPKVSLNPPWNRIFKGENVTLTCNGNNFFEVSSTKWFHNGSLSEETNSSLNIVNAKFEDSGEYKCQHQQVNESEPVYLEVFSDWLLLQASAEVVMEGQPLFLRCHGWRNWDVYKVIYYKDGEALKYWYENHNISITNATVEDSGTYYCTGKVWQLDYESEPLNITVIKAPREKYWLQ

Binder	Kd
binding protein DB-B64 (designed binder, Engineered IgG Fc with IgE CH3 loops) CPAPELLGGPSVFLFPPKPKDTLMISRTPEVTCVVVDLAPSKGTVKFNWYVDGVEVHNAKTKPREKQRNGTLTVVSVLTVLHQDWLNGKEYKCKVTHPHLPRALEKTISKAKGQPREPQVYTLPPSREEMTKNQVSLTCLVKGFYPSDIAVEWESNGQPENNYKTTPPVLDSDGSFFLYSKLTVDKSRWQQGNVFSCSVMHEALHNHYTQKSLSLSPGK	~1 nM
GPC3-specific binding protein DB-B230 (antibody, human IgG1, kappa, IgG-like molecule: Codrituzumab Fab fused to the engineered Fc; copies: 2 + 2) heavy: QVQLVQSGAEVKKPGASVKVSCKASGYTFTDYEMHWVRQAPGQGLEWMGALDPKTGDTAYSQKFKGRVTLTADKSTSTAYMELSSLTSEDTAVYYCTRFYSYTYWGQGTLVTVSSASTKGPSVFPLAPSSKSTSGGTAALGCLVKDYFPEPVTVSWNSGALTSGVHTFPAVLQSSGLYSLSSVVTVPSSSLGTQTYICNVNHKPSNTKVDKKVEPKSCDKTHTCPPCPADSNPRGVSVFLFPPKPKDTLMISRTPEVTCVVVDLAPSKGTVKFNWYVDGVEVHNAKTKPREKQRNGTLTVVSVLTVLHQDWLNGKEYKCKVTHPHLPRALEKTISKAKGQPREPQVYTLPPSREEMTKNQVSLTCLVKGFYPSDIAVEWESNGQPENNYKTTPPVLDSDGSFFLYSKLTVDKSRWQQGNVFSCSVMHEALHNHYTQKSLSLSPGK light: DVVMTQSPLSLPVTPGEPASISCRSSQSLVHSNRNTYLHWYLQKPGQSPQLLIYKVSNRFSGVPDRFSGSGSGTDFTLKISRVEAEDVGVYYCSQNTHVPPTFGQGTKLEIKRTVAAPSVFIFPPSDEQLKSGTASVVCLLNNFYPREAKVQWKVDNALQSGNSQESVTEQDSKDSTYSLSSTLTLSKADYEKHKVYACEVTHQGLSSPVTKSFNRGEC	~1 nM
GPC3-specific binding protein DB-B229 (antibody, IgG-like molecule: Codrituzumab Fab fused to the engineered Fc; copies: 2 + 2) heavy: QVQLVQSGAEVKKPGASVKVSCKASGYTFTDYEMHWVRQAPGQGLEWMGALDPKTGDTAYSQKFKGRVTLTADKSTSTAYMELSSLTSEDTAVYYCTRFYSYTYWGQGTLVTVSSASTKGPSVFPLAPSSKSTSGGTAALGCLVKDYFPEPVTVSWNSGALTSGVHTFPAVLQSSGLYSLSSVVTVPSSSLGTQTYICNVNHKPSNTKVDKKVEPKSCSRDFTPPTVKILQSSCDGGGHFPPTIQLLCLVSGYTPGTINITWLEDGQVMDVDLSTASTTQEGELASTQSELTLSQKHWLSDRTYTCQVTYQGHTFEDSTKKCADSNPRGVSVFLFPPKPKDTLMISRTPEVTCVVVDLAPSKGTVKFNWYVDGVEVHNAKTKPREKQRNGTLTVVSVLTVLHQDWLNGKEYKCKVTHPHLPRALEKTISKAKGQPREPQVYTLPPSREEMTKNQVSLTCLVKGFYPSDIAVEWESNGQPENNYKTTPPVLDSDGSFFLYSKLTVDKSRWQQGNVFSCSVMHEALHNHYTQKSLSLSPGK light: DVVMTQSPLSLPVTPGEPASISCRSSQSLVHSNRNTYLHWYLQKPGQSPQLLIYKVSNRFSGVPDRFSGSGSGTDFTLKISRVEAEDVGVYYCSQNTHVPPTFGQGTKLEIKRTVAAPSVFIFPPSDEQLKSGTASVVCLLNNFYPREAKVQWKVDNALQSGNSQESVTEQDSKDSTYSLSSTLTLSKADYEKHKVYACEVTHQGLSSPVTKSFNRGEC	~1 nM
Her2-specific binding protein DB872 (antibody, human IgG1, kappa, IgG-like molecule: Pertuzumab Fab fused to the engineered Fc (on the basis of DB366); copies: 2 + 2) heavy: EVQLVESGGGLVQPGGSLRLSCAASGFTFTDYTMDWVRQAPGKGLEWVADVNPNSGGSIYNQRFKGRFTLSVDRSKNTLYLQMNSLRAEDTAVYYCARNLGPSFYFDYWGQGTLVTVSSASTKGPSVFPLAPSSKSTSGGTAALGCLVKDYFPEPVTVSWNSGALTSGVHTFPAVLQSSGLYSLSSVVTVPSSSLGTQTYICNVNHKPSNTKVDKKVEPKSCDKTHTCPPCPADSNPRGVSVFLFPPKPKDTLMISRTPEVTCVVVDLAPSKGTVKFNWYVDGVEVHNAKTKPREKQRNGTLTVVSVLTVLHQDWLNGKEYKCKVTHPHLPRALEKTISKAKGQPREPQVYTLPPSREEMTKNQVSLTCLVKGFYPSDIAVEWESNGQPENNYKTTPPVLDSDGSFFLYSKLTVDKSRWQQGNVFSCSVMHEALHNHYTQKSLSLSPGK light: not shown	~1 nM
Her2-specific binding protein DB871 (antibody, IgG-like molecule: Pertuzumab Fab fused to the engineered Fc (on the basis of DB177); copies: 2 + 2) heavy: EVQLVESGGGLVQPGGSLRLSCAASGFTFTDYTMDWVRQAPGKGLEWVADVNPNSGGSIYNQRFKGRFTLSVDRSKNTLYLQMNSLRAEDTAVYYCARNLGPSFYFDYWGQGTLVTVSSASTKGPSVFPLAPSSKSTSGGTAALGCLVKDYFPEPVTVSWNSGALTSGVHTFPAVLQSSGLYSLSSVVTVPSSSLGTQTYICNVNHKPSNTKVDKKVEPKSCSRDFTPPTVKILQSSCDGGGHFPPTIQLLCLVSGYTPGTINITWLEDGQVMDVDLSTASTTQEGELASTQSELTLSQKHWLSDRTYTCQVTYQGHTFEDSTKKCADSNPRGVSVFLFPPKPKDTLMISRTPEVTCVVVDLAPSKGTVKFNWYVDGVEVHNAKTKPREKQRNGTLTVVSVLTVLHQDWLNGKEYKCKVTHPHLPRALEKTISKAKGQPREPQVYTLPPSREEMTKNQVSLTCLVKGFYPSDIAVEWESNGQPENNYKTTPPVLDSDGSFFLYSKLTVDKSRWQQGNVFSCSVMHEALHNHYTQKSLSLSPGK light: not shown	~1 nM
binding protein DB365 (designed binder, Engineered IgG Fc with IgE CH3 loops) TKKCADSNPRGVSVFLFPPKPKDTLMISRTPEVTCVVVDLAPSKGTVKFNWYVDGVEVHNAKTKPREKQRNGTLTVVSVLTVLHQDWLNGKEYKCKVTHPHLPRALEKTISKAKGQPREPQVYTLPPSREEMTKNQVSLTCLVKGFYPSDIAVEWESNGQPENNYKTTPPVLDSDGSFFLYSKLTVDKSRWQQGNVFSCSVMHEALHNHYTQKSLSLSPGK	~1 nM
binding protein DB177 (designed binder, Engineered human IgG Fc whose CH2 carries BC-LOOP, DE-TURN and FG-LOOP of IgE CH3) CSRDFTPPTVKILQSSCDGGGHFPPTIQLLCLVSGYTPGTINITWLEDGQVMDVDLSTASTTQEGELASTQSELTLSQKHWLSDRTYTCQVTYQGHTFEDSTKKCADSNPRGVSVFLFPPKPKDTLMISRTPEVTCVVVDLAPSKGTVKFNWYVDGVEVHNAKTKPREKQRNGTLTVVSVLTVLHQDWLNGKEYKCKVTHPHLPRALEKTISKAKGQPREPQVYTLPPSREEMTKNQVSLTCLVKGFYPSDIAVEWESNGQPENNYKTTPPVLDSDGSFFLYSKLTVDKSRWQQGNVFSCSVMHEALHNHYTQKSLSLSPGK	~1 nM
binding protein DB364 (designed binder, Engineered IgG Fc with IgE CH3 loops) DFTPPTVKILQSSCDGGGHFPPTIQLLCLVSGYTPGTINITWLEDGQVMDVDLSTASTTQEGELASTQSELTLSQKHWLSDRTYTCQVTYQGHTFEDSTKKCADSNPRGVSVFLFPPKPKDTLMISRTPEVTCVVVDLAPSKGTVKFNWYVDGVEVHNAKTKPREKQRNGTLTVVSVLTVLHQDWLNGKEYKCKVTHPHLPRALEKTISKAKGQPREPQVYTLPPSREEMTKNQVSLTCLVKGFYPSDIAVEWESNGQPENNYKTTPPVLDSDGSFFLYSKLTVDKSRWQQGNVFSCSVMHEALHNHYTQKSLSLSPGK	~1 nM
binding protein DB366 (designed binder, Engineered IgG Fc with IgE CH3 loops) CADSNPRGVSVFLFPPKPKDTLMISRTPEVTCVVVDLAPSKGTVKFNWYVDGVEVHNAKTKPREKQRNGTLTVVSVLTVLHQDWLNGKEYKCKVTHPHLPRALEKTISKAKGQPREPQVYTLPPSREEMTKNQVSLTCLVKGFYPSDIAVEWESNGQPENNYKTTPPVLDSDGSFFLYSKLTVDKSRWQQGNVFSCSVMHEALHNHYTQKSLSLSPGK	~1 nM
binding protein DB-B63 (designed binder, Engineered IgG Fc with IgE CH3 loops) CADSNPRGVSVFLFPPKPKDTLMISRTPEVTCVVVDLAPSKGTVNFNWYVDGVEVHNAKTKPREKQRNGTLTVVSVLTVLHQDWLNGKEYKCRVTHPHLPRALEKTISKAKGQPREPQVYTLPPSREEMTKNQVSLTCLVKGFYPSDIAVEWESNGQPENNYKTTPPVLDSDGSFFLYSKLTVDKSRWQQGNVFSCSVMHEALHNHYTQKSLSLSPGK	~1 nM

Source: patent US20260103522A1 (LONGBIO PHARMA SUZHOU, published 2026)
